The text below walks through data of the DeepSol protein solubility set.

This series can be described thus: soluble on expression in E. coli; label from the status in PepcDB or PDB records.
Take “MAHHHHHHMPVRRYGGRYNSSSPGVSNALNPSRTAGWPLSPSPATGSKPASTHHDPVPQEAYYVKDEADARHQQQAPLREPSVEVEVEIIDDEPPRGSQKPLSVAPCTANANNSSGGSKCNAITASRYTFYTNAYQKSVYEALRSLRPLPELQEPRRVKEYAETSLKDSLYRIVEAHDVIMVAGAFFGDEGKGKTVDAVARHPLCTCIARVNSGENAGHTVYDKAGRKFVFNLAPSGLLLPGKRNYIGPECVMDPVSFMEKEVIQLIDAGIDYRDRLFIGNVCIVTPYHKLLDLLGSAANSSTLKGMAPVHGSKVMKRGIRLDHIFNDDETLRKRLEKDMDTYFGLLKVKNLSDADVVRLCREENSDGVVRVPDYVIAFAQAEDKVEFLVKLYRDRVRHNPGFPARCDVTYELHAALLRGEKVLLEGPQSYWLSNARTKFWESTTSADTTAAGLLAASQLNFQKFKSVVLNVHKAPGSSRVGIGACPSSFVPQDYFSAQNIKTLRDLPSATCAHFEAVQRTLFRDGFPHSNDKARHNGIMAPVEYSDETGTYNIGVAMAIASAQHHGECGAVTKKPRVCGFFDCVLHHEVNNIQGPYLTISALDRGDEYDKVGVTIAYVYYSPEGKQVDVNGHVYKNGDIIRAGDPVPSEPALYHCHPIVKLIDGWRDNPIAAAKRRRNAPLPRGVCELLSAIEYFTNCKILSIGNGPNGDDIIYLRQ”: the “soluble on expression in E. coli” value was “not soluble”. The same measure for “AVPTVVGIPDGTAVVGRSFRVSIPTDLIASSGEIIKVSAAGKEALPSWLHWDPHSHILEGLPLDTDKGVHYISVSAARLGANGSHVPQTSSVFSIEVYPEDHNEPQSVRAASSDPGEVVPSACAADEPVTVLTVILDADLTKMTPKQRIDLLNRMQSFSEVELHNMKLVPVVNNRLFDMSAFMAGPGNAKKVVENGALLSWKLGCSLNQNSVPDIRGVETPAREGAMSAQLGYPVVGWHIANKKPT”: “soluble”; for “MDKFKYAFDNKRYHTWNYYLRNTFGEKVFKVSINAGFTCPNIDGSLGYGGCTYCSKEGSGDFAGNPKDNLISQFYNIKEMMLKKWPHAKYIGYFQAYTNTYAPLEVLKEKYETILELEDVIGLSISTRPDCLPDDIVEYLSELNKRTNLWVELGLQTIHDSTSKIINRGHDYKTFVEGVEKLKSKNIKVVVHIINGLPGEDYNMMMETAKAVGKMGVDGIKIHLLHVIKDTPMEKMLQNGMLTLMEQDEYINLVCDQLEILPETMIIHRLTGDGKRDELVGPIWSLKKWEILNKIDDTLKARNSYQGCKFV”: “soluble”; for “MGSDKIHHHHHHVKFRVDRDAFADAVTWTARALPARPAVPVLAGMRLEVADTASDTLRLSGFDYEVSAQASVDVHAEEAGSVLVPGRLLAEIVRTLPPHPVEFHVEGSRALLTCGNARFTLLTLPLEDYPTLPAMPRTIGSAPADVFATAVRQVLPSTSRDDTLPMLTGVHLTFRGDTILLAATDRYRIAVREMWWKPEEVDIDTSALVPARTLGDFSRSLTGGNVDIALSTSDSRGAGEGMIGFEHDGKRTTTRLIDSDFVSYESRFPTEFAAQADVPVAPLAEAVKRVALVADRSTPVRLSFTSSEVVLEAGSGDDAQALEALEVNFEGEPMRIAFNPQYFLDGLTNVETERAFLRFVAPTRPAVITGTPAKEGGKPDFRYLVMPLRLA”: “not soluble”. The same measure for “MSLIYCETERLILRDWHEDDLLPFQKMNANYDVRKYFPSLLSYRRSELDMRTMDAVIKDYGIGLFAVEDKESHQWIGFIGLNYIPETSDYPFKELPLYEIGWRLLPEFWGKGLATEGAKATLKLAEEHQIYDVYSFTAEANKASQRVMEKIGMTVYDHFELPNLSKYHLLKRQVRYYINLRKEGHHHHHH”: “soluble”; for “MGSDKIHHHHHHMKHIAVIGAGLGGLSAAISLASKGFKVTVIERNEHIGGKMMPITSEGHRFDFGPNTITMPEIFQSVILESGADPDDYFTFEKLTRHTVNHFPDGRSLTFASGREAMRTEVDRFTKGQLAKNDITGYQDEVRELYNIAKQQFFINIDSYFNFSLLRDMTKVHPFKTLHGLHKKYFKDPQLIQALDRYATYIGSSPFQAPATFGLIAHLELNDGVYFTRGGNTAIAEGFARRARELGVTFRLGDEVTQIEVTNQLATEIELNHVDYLSVDFIVLNGDLLTQYPRLISETVRPDFKNPTPAQMEPSISAYVRCIGLGRRIAGLAHHNVFFSSDYEAEFEALFNQHRYAEEPTIYISNSSVTAPEMGEAGDNLFVLVNAPATHKGSAVDFDTYDKIIDQRLQQFGIDITSDVLFEQRITPQDIEQKFSAYHGSLYGLSSNGTRGAFMRPSNRSKNVHNLFFAGGSTHPGGGSPMVTLSGKLASERIVSAVAATL”: “not soluble”.
